This is an account of results in US20150031748A1 (AGENCY FOR SCIENCE TECHNOLOGY AND RESEARCH, published 2015).

The target in experiment [1] is T1, HA-Slug (full length mouse Slug in pDHA, two HA tags) (Mus musculus, UniProt P97469 1-269, 35S-methionine labelled in Example 5).
T1 construct: also called pDHA-Slug; HA tagged Slug; not shown: the two HA tags of the pDHA vector and any vector linker
T1 sequence: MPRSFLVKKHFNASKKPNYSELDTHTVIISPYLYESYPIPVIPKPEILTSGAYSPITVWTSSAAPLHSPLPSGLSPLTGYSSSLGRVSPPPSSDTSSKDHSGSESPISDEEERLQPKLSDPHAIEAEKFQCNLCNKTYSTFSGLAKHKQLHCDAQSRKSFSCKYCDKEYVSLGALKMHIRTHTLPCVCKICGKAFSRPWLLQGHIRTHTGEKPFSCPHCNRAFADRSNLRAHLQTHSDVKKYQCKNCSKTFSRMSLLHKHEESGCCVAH
As to the kind of experiment: GST pull-down of 35S-labeled in vitro translated protein, autoradiography. How it is done:
In vitro translation was carried out using Quick Coupled T7 TNT System (Promega, Madson, Wis.) according to the manufacturers protocol. Slug, EX and ZNF cloned into the pDHA vector were in vitro translated and labeled with 35S Methionine. GST, GST-ZO-2 SGA, GST-ZO-2 SH3, GST-20-2 GA, GST-ZO-2 AP and GST-ZO-2 P were produced, purified as described above and were bound to glutathione Sepharose-4B (Amersham Biosciences, Piscataway, N.J., USA) following standard protocols.
Purified GST-fusion proteins were quantified by SDS-PAGE by comparing with known amounts of BSA as standards. 20 μl bed volume of beads carrying 20 μg of GST or the above GST fused ZO-2 truncated proteins were incubated with 10 μl of in vitro translated 35S Methionine labeled, HA tagged Slug, EX or ZNF and topped up with 200 μl of buffer B (PBS with 1% TX-100 PBS, 1 mM EDTA, Complete EDTA free protease inhibitor cocktail (Roche Diagnostics, Indianapolis, Ind.), 1 mM dithiothreitol (DTT), 300 μg/ml Benzamiidine) for 3 h at 4° C. The beads were washed three times with 500 μl of buffer B each time. This was followed by suspension in 30 μl of SDS sample buffer and the analysis of the bound proteins by running through a 15% SDS-PAGE gel and autoradiography, with a 2 to 3 day exposure period. To reciprocate the binding, GST, GST-Slug and GST-ZNF were used as baits. […]

Experiment [2] has as its target T2, GST-ZO-2SGA (canine ZO-2 amino acids 575-947 in pGEX-6P-1) (Canis lupus familiaris, UniProt Q95168 575-947).
T2 construct: also called GST-ZO2 SGA WT
T2 sequence: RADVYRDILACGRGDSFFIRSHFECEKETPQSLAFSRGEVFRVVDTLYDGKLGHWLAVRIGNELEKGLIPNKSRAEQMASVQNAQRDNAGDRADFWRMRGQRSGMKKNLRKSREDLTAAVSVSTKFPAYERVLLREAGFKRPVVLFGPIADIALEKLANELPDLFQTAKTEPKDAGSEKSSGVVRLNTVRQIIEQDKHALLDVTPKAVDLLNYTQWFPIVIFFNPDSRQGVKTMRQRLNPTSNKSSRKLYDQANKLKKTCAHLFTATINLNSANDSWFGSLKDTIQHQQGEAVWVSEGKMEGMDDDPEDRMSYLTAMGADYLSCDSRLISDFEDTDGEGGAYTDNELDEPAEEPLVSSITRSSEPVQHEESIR
Description: GST binding assay with GFP-Slug MDCK lysate, anti-Slug blot.

The target in experiment [3] is T3, MYC tagged GA domain of canine ZO-3 (amino acids 606-899), in vitro translated (canine, UniProt O62683 606-898).
T3 construct: range 606-899; also called MYC-ZO-3GA; ZO-3GA; not shown: MYC tag from pGBKT7
T3 sequence (looked up): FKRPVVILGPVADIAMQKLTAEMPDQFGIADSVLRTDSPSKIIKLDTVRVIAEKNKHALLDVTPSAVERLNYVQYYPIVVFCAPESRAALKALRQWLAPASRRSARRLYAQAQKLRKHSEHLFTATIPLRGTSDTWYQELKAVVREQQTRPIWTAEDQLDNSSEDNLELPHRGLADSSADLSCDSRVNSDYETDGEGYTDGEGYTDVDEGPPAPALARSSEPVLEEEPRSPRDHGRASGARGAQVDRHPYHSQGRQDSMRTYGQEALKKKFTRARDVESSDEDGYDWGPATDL
Description: GST pull-down of in vitro translated MYC-tagged GA domain, anti-myc blot.

Experiment [4] addresses T4, human ZO-1 SGA domain (amino acids 490-883) in bait vector pGBKT7 (human, UniProt P04386 1-147; Q07157 490-883).
T4 construct: Yeast two-hybrid bait
As to the kind of experiment: yeast two-hybrid, QDO growth and beta-galactosidase activity. The source says:
(§1) All experimental details were according to the manufacturer's protocols. Clones were screened at high stringency with a quadruple (-Trp, -Leu, -His, -Ade) dropout media and then tested for α- and β-galactosidase activity. Library plasmids with the cDNA inserts from positive clones were isolated and sequenced, resulting in the identification of the entire Slug cDNA. The interaction was retested by transforming this Slug cDNA plasmid with bait vectors carrying the human ZO-1 SGA domain (amino acids 490-883), the canine ZO-2 SGA (amino acids 575-945), SH3 (amino acids 575-713), as well as the GA domain (amino acids 714-945) or the canine ZO-3 […] domain (amino acids 450-899). Empty pGBKT7 and a bait plasmid with […] cDNA (Clontech) were used as negative controls.
(§2) The interaction was retested by transforming this Slug cDNA plasmid with bait vectors carrying the human ZO-1SGA domain (amino acids 490-883), the canine ZO-2SGA (amino acids 575-945), SH3 (amino acids 575-713), GA domain (amino acids 714-945), as well as the canine ZO-3SGA domain (amino acids 450-899). Interactions were determined by monitoring the growth of the co-transformed yeasts in on selective media & β-galactosidase activity. […]

The target in experiment [5] is T5, canine ZO-3 SGA domain (amino acids 450-899) in bait vector pGBKT7 (canine, UniProt P04386 1-147; O62683 450-898).
T5 construct: Yeast two-hybrid bait; also called canine ZO-3 SGC domain
The description is as above.
Text: as §1, §2

B1: GST-ZO-2P (proline rich domain, canine ZO-2 amino acids 948-1174 in pGEX-6P-1) (other)
chain: KPSPEPRAQMRRAASRDQLRDSSPPPAFKPEPPKAKTQNREESFDISRSHDYKSNPSAVAGNEVSGASTRSCPPPIAAKPSFGRSILKPSTPVPSPESEEVGEGSEEQEGAPKSVLGKVKIFEKMDHKARLQRMQELQEAQNARIEIAQKHPDIYAVPIKTHKPDPGLSQHTSSRPPEPQKGPSRLYQDPRGSYGSDAEEEEYRQQLSEHSKRGYYSQPSRYRDTEL
notes: also called the P; not shown: GST of pGEX-6P-1 and its linker (PreScission site, cloning-site residues)
On to B1, for which the binding result in experiment [1] was “no binding”.

B2: GFP-Slug (full length mouse Slug in pEGFP, stably expressed in MDCK cells) (other)
chain: MPRSFLVKKHFNASKKPNYSELDTHTVIISPYLYESYPIPVIPKPEILTSGAYSPITVWTSSAAPLHSPLPSGLSPLTGYSSSLGRVSPPPSSDTSSKDHSGSESPISDEEERLQPKLSDPHAIEAEKFQCNLCNKTYSTFSGLAKHKQLHCDAQSRKSFSCKYCDKEYVSLGALKMHIRTHTLPCVCKICGKAFSRPWLLQGHIRTHTGEKPFSCPHCNRAFADRSNLRAHLQTHSDVKKYQCKNCSKTFSRMSLLHKHEESGCCVAH
notes: not shown: EGFP of the pEGFP vector and its linker to Slug
With B2, in experiment [2], the binding result is reported as “binds”.

B3: GST-Slug (full length mouse Slug in pGEX4T-1) (other)
chain: MPRSFLVKKHFNASKKPNYSELDTHTVIISPYLYESYPIPVIPKPEILTSGAYSPITVWTSSAAPLHSPLPSGLSPLTGYSSSLGRVSPPPSSDTSSKDHSGSESPISDEEERLQPKLSDPHAIEAEKFQCNLCNKTYSTFSGLAKHKQLHCDAQSRKSFSCKYCDKEYVSLGALKMHIRTHTLPCVCKICGKAFSRPWLLQGHIRTHTGEKPFSCPHCNRAFADRSNLRAHLQTHSDVKKYQCKNCSKTFSRMSLLHKHEESGCCVAH
notes: Full length Slug; not shown: GST and the protease-site linker encoded by pGEX4T-1
For the molecule B3, in experiment [3], the binding result is recorded as “no binding”.

B4: full-length mouse Slug fused to the GAL4 transactivator domain (library clone 30A) (other, not shown: small tags and cut ends)
chain: MPRSFLVKKHFNASKKPNYSELDTHTVIISPYLYESYPIPVIPKPEILTSGAYSPITVWTSSAAPLHSPLPSGLSPLTGYSSSLGRVSPPPSSDTSSKDHSGSESPISDEEERLQPKLSDPHAIEAEKFQCNLCNKTYSTFSGLAKHKQLHCDAQSRKSFSCKYCDKEYVSLGALKMHIRTHTLPCVCKICGKAFSRPWLLQGHIRTHTGEKPFSCPHCNRAFADRSNLRAHLQTHSDVKKYQCKNCSKTFSRMSLLHKHEESGCCVAH
notes: Yeast two-hybrid prey, full length; also called pGADT7-Slug
Take B4: the binding result in experiment [4] and in experiment [5] was “no binding” each time.
